The data set has as its system Escherichia coli TOP10. Description: shrunken log2 fold change of peptide-encoding DNA abundance (4.5 h post-induction vs induction); higher = less antimicrobial activity (less host growth inhibition). To be noted: time post-induction: 4.5 h; library: site-saturation at positions 5, 18, 19, 20.
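Note: peptides expressed intracellularly from a pBAD plasmid library in pooled LB shake-flask culture, induced with 0.3% L-arabinose, DNA abundance read by NGS, three biological replicates, DESeq2 with apeglm shrinkage.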

With RRIRGRPPRLPRPRPRPPKNPRP, the “shrunken log2 fold change” value was 1.11.
Next, RRIRHRPPRLPRPRPRPRRAPRP: 0.21.
For RRIRGRPPRLPRPRPRPKIGPRP the value was 0.752.
Next, RRIRDRPPRLPRPRPRPFACPRP: 0.107; RRIRHRPPRLPRPRPRPEHTPRP: -0.328.
As for RRIRIRPPRLPRPRPRPCCHPRP, the “shrunken log2 fold change” value is -0.486.
Next, RRIRCRPPRLPRPRPRPNVEPRP: -0.216; RRIRTRPPRLPRPRPRPCLKPRP: -0.0017; RRIRSRPPRLPRPRPRPPCIPRP: -0.105.
Next, RRIRQRPPRLPRPRPRPKNYPRP: -0.216; RRIRTRPPRLPRPRPRPMEEPRP: -0.25.
Consider RRIRTRPPRLPRPRPRPWLNPRP, for which the “shrunken log2 fold change” value is -0.0665.
For RRIRDRPPRLPRPRPRPHYGPRP the value was -0.192.
Next, RRIRNRPPRLPRPRPRPCATPRP: -0.0524; RRIRDRPPRLPRPRPRPAHRPRP: -0.0802; RRIRHRPPRLPRPRPRPCWVPRP: -0.0013.
As to RRIRARPPRLPRPRPRPVHNPRP, the “shrunken log2 fold change” value turned out to be 0.11.
RRIRQRPPRLPRPRPRPDFLPRP: the “shrunken log2 fold change” value is -0.338.
For RRIRFRPPRLPRPRPRPRWIPRP the value was 0.0967; for RRIRARPPRLPRPRPRPMVNPRP, 0.309.
For RRIRERPPRLPRPRPRPPNEPRP the value was 0.28.
For RRIRERPPRLPRPRPRPPDKPRP, the “shrunken log2 fold change” value amounted to 0.0845.
Next, RRIRNRPPRLPRPRPRPEIRPRP: 0.126.
Next, RRIRVRPPRLPRPRPRPKRMPRP: 0.117.
Next, RRIRNRPPRLPRPRPRPILIPRP: -0.37; RRIRFRPPRLPRPRPRPTKMPRP: 0.0196; RRIRFRPPRLPRPRPRPGCQPRP: -0.157.
For the sequence RRIRWRPPRLPRPRPRPTLFPRP, the “shrunken log2 fold change” value amounted to 0.0961.
Turning to RRIRVRPPRLPRPRPRPRPNPRP, the “shrunken log2 fold change” value stood at 0.381.
In the case of RRIRPRPPRLPRPRPRPVRVPRP, the “shrunken log2 fold change” value was determined as 0.502.
Next, RRIRVRPPRLPRPRPRPGVSPRP: -0.141; RRIRWRPPRLPRPRPRPRVFPRP: 0.186; RRIRLRPPRLPRPRPRPSCGPRP: -0.583.
Next, RRIRERPPRLPRPRPRPHVKPRP: -0.767; RRIRPRPPRLPRPRPRPPMWPRP: 0.412; RRIRPRPPRLPRPRPRPATSPRP: 0.358.
Next, RRIRYRPPRLPRPRPRPMMAPRP: -0.146; RRIRHRPPRLPRPRPRPVLAPRP: 0.126.
With RRIRVRPPRLPRPRPRPHPMPRP, the “shrunken log2 fold change” value was -0.15.
For RRIRGRPPRLPRPRPRPIHPPRP the value was 0.0319; for RRIRFRPPRLPRPRPRPPWAPRP, 0.267.
Next, RRIRARPPRLPRPRPRPGYLPRP: 0.0801; RRIRLRPPRLPRPRPRPNTRPRP: -0.273.
Next, RRIRLRPPRLPRPRPRPTLIPRP: -0.407.
For the sequence RRIRERPPRLPRPRPRPMWNPRP, the “shrunken log2 fold change” value was -0.0278.
Take RRIRNRPPRLPRPRPRPPTKPRP: the “shrunken log2 fold change” value was found to be 0.46.
Consider RRIRPRPPRLPRPRPRPGKQPRP, for which the “shrunken log2 fold change” value is -0.0793.
For RRIRHRPPRLPRPRPRPLYQPRP the value was -0.112; for RRIRLRPPRLPRPRPRPPTAPRP, 0.228.
With RRIRNRPPRLPRPRPRPHCGPRP, the “shrunken log2 fold change” value was -0.225.
In the case of RRIRKRPPRLPRPRPRPWYGPRP, the “shrunken log2 fold change” value was -0.188.
Next, RRIRMRPPRLPRPRPRPLGKPRP: 0.0958; RRIRPRPPRLPRPRPRPIRHPRP: -0.146; RRIRHRPPRLPRPRPRPVHYPRP: -0.495.
Next, RRIRRRPPRLPRPRPRPCAQPRP: -0.0794; RRIRKRPPRLPRPRPRPYWGPRP: -0.000921.
RRIRIRPPRLPRPRPRPKAQPRP: the “shrunken log2 fold change” value was -0.0442.
For RRIRARPPRLPRPRPRPQHRPRP the value was -0.281; for RRIRLRPPRLPRPRPRPLYLPRP, -0.837; for RRIRDRPPRLPRPRPRPQAPPRP, -0.0631.
On to RRIRNRPPRLPRPRPRPIEFPRP, for which the “shrunken log2 fold change” value was -0.235.
For RRIRKRPPRLPRPRPRPQHTPRP the value was 0.0113; for RRIRQRPPRLPRPRPRPMDTPRP, -0.031.
Next, RRIRRRPPRLPRPRPRPDKYPRP: -0.259.
For RRIRVRPPRLPRPRPRPQPRPRP, the “shrunken log2 fold change” value was found to be 0.429.
Next, RRIRFRPPRLPRPRPRPAPDPRP: 0.323; RRIRDRPPRLPRPRPRPSFIPRP: -0.572; RRIRFRPPRLPRPRPRPWTHPRP: -0.0346.
In the case of RRIRQRPPRLPRPRPRPLIVPRP, the “shrunken log2 fold change” value was -0.149.
Take RRIRFRPPRLPRPRPRPRSLPRP: the “shrunken log2 fold change” value came to 0.0152.
Next, RRIRRRPPRLPRPRPRPLEAPRP: 0.404; RRIRFRPPRLPRPRPRPIDQPRP: -0.296.
Next, RRIRKRPPRLPRPRPRPTNAPRP: 0.733.
Next, RRIRSRPPRLPRPRPRPCRVPRP: 0.11.
As to RRIRWRPPRLPRPRPRPHRTPRP, the “shrunken log2 fold change” value was -0.168.
RRIRSRPPRLPRPRPRPVTQPRP: the “shrunken log2 fold change” value was 0.168.
With RRIRQRPPRLPRPRPRPYFIPRP, the “shrunken log2 fold change” value is -1.23.
For RRIRQRPPRLPRPRPRPYMYPRP the value was -0.0364; for RRIRTRPPRLPRPRPRPQKMPRP, 0.176; for RRIRHRPPRLPRPRPRPQGLPRP, -0.247.
Next, RRIRMRPPRLPRPRPRPSKDPRP: 0.37; RRIRIRPPRLPRPRPRPVFGPRP: -0.0092.
As to RRIRGRPPRLPRPRPRPNAEPRP, the “shrunken log2 fold change” value stood at 2.89.
For RRIRRRPPRLPRPRPRPEHPPRP the value was 3.32; for RRIRKRPPRLPRPRPRPSVAPRP, 0.394; for RRIRDRPPRLPRPRPRPLETPRP, 0.73.
Next, RRIRIRPPRLPRPRPRPEKPPRP: -0.0144; RRIRHRPPRLPRPRPRPAELPRP: -0.00261; RRIRIRPPRLPRPRPRPLKHPRP: -0.58.
Next, RRIRKRPPRLPRPRPRPFFAPRP: 0.645; RRIRLRPPRLPRPRPRPNWFPRP: -0.00982.

(Values after the supplement of paper PMC9112550, “Optimization of the antimicrobial peptide Bac7 by deep mutational scanning” (BMC Biology, 2022).)
